T1: 1-27 CD3-EpCAM, human 27 mer (human; cynomolgus)
T1 construct: On transfected cells; also called N-terminal amino acids 1-27 of human CD3 epsilon fused to Flag tagged cynomolgus EpCAM
T1 chain: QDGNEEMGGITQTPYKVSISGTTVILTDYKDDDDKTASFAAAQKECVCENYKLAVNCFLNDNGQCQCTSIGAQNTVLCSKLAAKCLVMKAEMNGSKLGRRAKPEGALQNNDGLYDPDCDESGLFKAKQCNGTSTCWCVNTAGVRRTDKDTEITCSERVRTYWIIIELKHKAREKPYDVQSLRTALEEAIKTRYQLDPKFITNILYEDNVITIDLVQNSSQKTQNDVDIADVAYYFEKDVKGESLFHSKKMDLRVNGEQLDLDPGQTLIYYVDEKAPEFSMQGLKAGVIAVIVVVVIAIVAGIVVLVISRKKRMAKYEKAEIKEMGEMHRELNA

T2: 1-27 CD3-EpCAM, swine 27 mer (domestic swine (Sus scrofa); cynomolgus)
T2 construct: Negative control, on transfected cells; also called 1-27 N-terminal CD3 epsilon of swine fused to cynomolgus EpCAM
T2 chain: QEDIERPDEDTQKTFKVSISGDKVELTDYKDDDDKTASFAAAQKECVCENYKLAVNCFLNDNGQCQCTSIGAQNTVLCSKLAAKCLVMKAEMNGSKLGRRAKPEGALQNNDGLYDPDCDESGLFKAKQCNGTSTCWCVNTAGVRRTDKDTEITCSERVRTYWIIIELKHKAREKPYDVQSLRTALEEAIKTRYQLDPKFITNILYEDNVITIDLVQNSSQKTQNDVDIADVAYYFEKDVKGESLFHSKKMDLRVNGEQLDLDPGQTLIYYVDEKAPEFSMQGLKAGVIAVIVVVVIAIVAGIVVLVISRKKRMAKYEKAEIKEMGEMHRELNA


How the values were obtained:
1-27 CD3-Fc [1] = biological target: T3, 1-27 CD3-Fc (human); assay: ELISA, captured 1-27 CD3-Fc
T3 construct: also called 27 aa huCD3E; human CD3 epsilon (aa 1-27)-Fc fusion protein

[2] = biological target: T1, 1-27 CD3-EpCAM, human 27 mer; assay: FACS 293-HEK transfectant
[3] = biological target: T2, 1-27 CD3-EpCAM, swine 27 mer; assay: FACS on 293-HEK transfectants
[4] = biological target: T4, human CD3 (native, on HPB-ALL cells or human PBMC) (human, UniProt P07766 23-207); assay: FACS HPB-ALL
T4 construct: whole, on cells; Other chains of the CD3/TCR complex are present on the cells; also called human CD3 epsilon; native CD3 on intact T cells
T4 sequence (P07766 23-207): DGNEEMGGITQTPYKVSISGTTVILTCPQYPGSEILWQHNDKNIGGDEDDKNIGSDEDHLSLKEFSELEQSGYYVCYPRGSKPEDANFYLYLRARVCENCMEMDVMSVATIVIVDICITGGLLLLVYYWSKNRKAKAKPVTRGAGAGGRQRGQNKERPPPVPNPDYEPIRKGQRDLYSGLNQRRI

1-27 CD3-Fc [5] = biological target: T3, 1-27 CD3-Fc; assay: SPR (Biacore), 1-27 CD3-Fc immobilised

binding result (1-27 CD3-Fc [1])	Kd (1-27 CD3-Fc [5])	Binder	other results
binds		E2M HLP (scFv, crude periplasmic preparation, Flag and His6 tagged) scFv: EVQLLESGGGLVQPGGSLKLSCAASGFTFNGYAMNWVRQAPGKGLEWVARIRSKYNNYATYYADSVKERFTISRDDSKNTAYLQMNNLKTEDTAVYYCVRHRNFGNSYLSWFAYWGQGTLVTVSSGGGGSGGGGSGGGGSELVVTQEPSLTVSPGGTVTLTCRSSTGAVTSGYYPNWVQQKPGQAPRGLIGATDMRPSGTPARFSGSLLGGKAALTLSGVQPEDEAEYYCALWYSNRWVFGGGTKLTVL	binding result [2]: binds; binding result [3]: no binding
binds		A2J HLP (scFv, crude periplasmic preparation, Flag and His6 tagged) scFv: EVQLLESGGGLVQPGGSLKLSCAASGFTFNVYAMNWVRQAPGKGLEWVARIRSKYNNYATYYADSVKKRFTISRDDSKNTAYLQMNNLKTEDTAVYYCVRHGNFGNSYLSWWAYWGQGTLVTVSSGGGGSGGGGSGGGGSELVVTQEPSLTVSPGGTVTLTCRSSTGAVTSGYYPNWVQQKPGQAPRGLIGATDMRPSGTPARFSGSLLGGKAALTLSGVQPEDEAEYYCALWYSNRWVFGGGTKLTVL	
		MCSP-G4 HLP × E2M HLP (bispecific antibody) QVQLVQSGAEVKRPGASMKVSCKASGYTFTNYYIHWVRQAPGQGLEWMGWINPNSGATNYAQKFQGRVTMTRDTSTSTVYMELSSLRSEDTAVYYCAKSWVSWFASWGQGTLVTVSSGGGGSGGGGSGGGGSELVMTQSPDSLAVSLGERATINCKSSQSVLNSSNNRNYLAWYQQKPGQPPKLLIYWASTRESGVPDRFSGSGSGTDFTLTISGLQAEDVAVYYCQQHYSTPFTFGPGTKVDIKSGGGGSEVQLLESGGGLVQPGGSLKLSCAASGFTFNGYAMNWVRQAPGKGLEWVARIRSKYNNYATYYADSVKERFTISRDDSKNTAYLQMNNLKTEDTAVYYCVRHRNFGNSYLSWFAYWGQGTLVTVSSGGGGSGGGGSGGGGSELVVTQEPSLTVSPGGTVTLTCRSSTGAVTSGYYPNWVQQKPGQAPRGLIGATDMRPSGTPARFSGSLLGGKAALTLSGVQPEDEAEYYCALWYSNRWVFGGGTKLTVL	binding result [4]: binds
	249 nM	EGFR-21-63 LH × A2J HLP (bispecific antibody, also called EGFR LH × A2J HLP) DIVLTQSPASLPVSLGQRATISCRASQSVSSSTYSYIHWYQQKPGQPPKLLITYASNLESGVPARFSGSGSGTDFTLDIHPVEEDDSSTYYCQHSWEIPFTFGSGTKLEIKGGGGSGGGGSGGGGSQVQLQQSGPDLVKPGASVKMSCKASGHTFTDCVIIWVKQRAGQGLEWIGQIYPGTGRSYYNEIFKGKATLTADKSSNTVHIQLSSLTSEDSAVYFCALSTLIHGTWFSYWGQGTLVTVSSGGGGSEVQLLESGGGLVQPGGSLKLSCAASGFTFNVYAMNWVRQAPGKGLEWVARIRSKYNNYATYYADSVKKRFTISRDDSKNTAYLQMNNLKTEDTAVYYCVRHGNFGNSYLSWWAYWGQGTLVTVSSGGGGSGGGGSGGGGSELVVTQEPSLTVSPGGTVTLTCRSSTGAVTSGYYPNWVQQKPGQAPRGLIGATDMRPSGTPARFSGSLLGGKAALTLSGVQPEDEAEYYCALWYSNRWVFGGGTKLTVL	
	2460 nM	EGFR-21-63 LH × E2M HLP (bispecific antibody, also called EGFR LH × E2M HLP) DIVLTQSPASLPVSLGQRATISCRASQSVSSSTYSYIHWYQQKPGQPPKLLITYASNLESGVPARFSGSGSGTDFTLDIHPVEEDDSSTYYCQHSWEIPFTFGSGTKLEIKGGGGSGGGGSGGGGSQVQLQQSGPDLVKPGASVKMSCKASGHTFTDCVIIWVKQRAGQGLEWIGQIYPGTGRSYYNEIFKGKATLTADKSSNTVHIQLSSLTSEDSAVYFCALSTLIHGTWFSYWGQGTLVTVSSGGGGSEVQLLESGGGLVQPGGSLKLSCAASGFTFNGYAMNWVRQAPGKGLEWVARIRSKYNNYATYYADSVKERFTISRDDSKNTAYLQMNNLKTEDTAVYYCVRHRNFGNSYLSWFAYWGQGTLVTVSSGGGGSGGGGSGGGGSELVVTQEPSLTVSPGGTVTLTCRSSTGAVTSGYYPNWVQQKPGQAPRGLIGATDMRPSGTPARFSGSLLGGKAALTLSGVQPEDEAEYYCALWYSNRWVFGGGTKLTVL	
